Drawing on publication PMC3431625 (The Journal of Biological Chemistry, 2012), this text covers Kd for one molecule.

The target of assay [1] is Mouse laminin isolated from Engelbreth-Holm-Swarm mouse sarcoma (mouse, UniProt P19137;P02469;P02468). Description: ELISA.
A further assay has as its target Collagen type I (UniProt P02453;P02465). Description: ELISA.

Collagen type I, sequence (P02453 162-1217, chain 1 of 2): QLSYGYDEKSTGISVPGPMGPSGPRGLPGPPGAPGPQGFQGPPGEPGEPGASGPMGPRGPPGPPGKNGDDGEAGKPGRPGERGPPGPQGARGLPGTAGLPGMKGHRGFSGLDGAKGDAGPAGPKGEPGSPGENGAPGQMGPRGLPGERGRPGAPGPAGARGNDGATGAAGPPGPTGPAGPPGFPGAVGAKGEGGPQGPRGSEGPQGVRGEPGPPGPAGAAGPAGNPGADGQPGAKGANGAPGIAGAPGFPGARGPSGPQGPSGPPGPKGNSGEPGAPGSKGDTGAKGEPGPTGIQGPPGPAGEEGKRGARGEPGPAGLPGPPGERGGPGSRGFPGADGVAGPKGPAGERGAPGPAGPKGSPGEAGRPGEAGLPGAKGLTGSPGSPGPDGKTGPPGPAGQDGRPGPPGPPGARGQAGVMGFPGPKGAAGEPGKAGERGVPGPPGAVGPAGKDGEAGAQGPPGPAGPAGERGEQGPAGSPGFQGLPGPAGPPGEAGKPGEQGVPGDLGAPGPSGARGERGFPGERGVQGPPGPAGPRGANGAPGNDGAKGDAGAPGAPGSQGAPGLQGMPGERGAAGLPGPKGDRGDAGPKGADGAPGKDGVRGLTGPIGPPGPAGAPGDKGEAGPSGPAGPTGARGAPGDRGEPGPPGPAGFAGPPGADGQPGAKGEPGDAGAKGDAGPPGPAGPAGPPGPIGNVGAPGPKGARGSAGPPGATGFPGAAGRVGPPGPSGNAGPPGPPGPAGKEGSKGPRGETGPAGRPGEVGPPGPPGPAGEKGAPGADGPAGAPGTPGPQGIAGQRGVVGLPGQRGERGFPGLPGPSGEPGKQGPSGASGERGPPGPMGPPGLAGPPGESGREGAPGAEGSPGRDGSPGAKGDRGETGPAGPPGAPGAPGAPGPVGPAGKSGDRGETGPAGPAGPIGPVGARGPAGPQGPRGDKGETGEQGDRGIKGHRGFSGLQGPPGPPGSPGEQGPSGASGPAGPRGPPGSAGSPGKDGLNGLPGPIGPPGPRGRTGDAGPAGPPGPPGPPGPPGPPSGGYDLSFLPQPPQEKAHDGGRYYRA
Collagen type I, sequence (P02465 80-1117, chain 2 of 2): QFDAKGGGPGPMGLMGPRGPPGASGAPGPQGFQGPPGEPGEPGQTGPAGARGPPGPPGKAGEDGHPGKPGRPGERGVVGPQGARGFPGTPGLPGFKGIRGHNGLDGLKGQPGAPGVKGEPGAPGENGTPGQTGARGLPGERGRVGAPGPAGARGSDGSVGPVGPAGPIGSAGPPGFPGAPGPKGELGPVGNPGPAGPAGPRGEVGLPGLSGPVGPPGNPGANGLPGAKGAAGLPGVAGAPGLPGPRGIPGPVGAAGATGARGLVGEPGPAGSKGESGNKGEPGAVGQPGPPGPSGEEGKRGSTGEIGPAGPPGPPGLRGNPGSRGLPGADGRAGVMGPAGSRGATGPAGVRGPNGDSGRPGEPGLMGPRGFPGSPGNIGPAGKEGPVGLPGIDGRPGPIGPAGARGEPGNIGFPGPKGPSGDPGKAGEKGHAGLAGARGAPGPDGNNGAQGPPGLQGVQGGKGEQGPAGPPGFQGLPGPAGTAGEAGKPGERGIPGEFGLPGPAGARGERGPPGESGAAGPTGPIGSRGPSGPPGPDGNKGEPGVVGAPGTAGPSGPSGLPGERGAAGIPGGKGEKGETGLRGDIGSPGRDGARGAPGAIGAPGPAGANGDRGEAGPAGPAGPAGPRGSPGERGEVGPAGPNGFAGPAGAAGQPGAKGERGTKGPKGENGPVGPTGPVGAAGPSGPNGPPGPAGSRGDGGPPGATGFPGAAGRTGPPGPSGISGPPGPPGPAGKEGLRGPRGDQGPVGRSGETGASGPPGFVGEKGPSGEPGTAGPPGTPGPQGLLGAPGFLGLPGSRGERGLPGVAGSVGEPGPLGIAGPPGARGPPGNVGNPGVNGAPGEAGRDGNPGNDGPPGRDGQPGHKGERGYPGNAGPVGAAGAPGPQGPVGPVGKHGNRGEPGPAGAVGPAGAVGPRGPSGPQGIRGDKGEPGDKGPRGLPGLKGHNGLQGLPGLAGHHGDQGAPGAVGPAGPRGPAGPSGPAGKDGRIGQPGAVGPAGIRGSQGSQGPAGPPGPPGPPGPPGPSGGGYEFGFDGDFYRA

B1: Recombinant bovine opticin (natural protein)
chain: ASLSEEREGDPYAILHLGDYVLSLDNYDEVIDPSNYDELIDYGDQLPQVKGTSLASLTRTRFTQSTEAARTLPSNPTTARPPTLGLLAAPANHGLPTCLICVCLGSSVYCDDADLENIPPLPQTTAYLYARFNRISHIRAGDFKGLTKLKRIDLSGNSISSIDDKALRLLPALRDLILPENKLVALPTLPTSIEVLDVRMNRLQSSGIQPEAFRALEKLQFLYLADNLLDAIPPSLPLSLRSLHLQNNMIETMQRDAFCDAEEHRHTRRPLEDIRLDGNPINLSLFPSAYFCLPRLPTGRFV
Regarding B1, the values for the Kd (in assay [1]; with Collagen type I) were 40 nM and 60 nM, respectively.

For orientation: Kd means the concentration at which binding is half-saturated. High values mean weaker binding, low ones tighter binding.
